Assay results taken from patent US20260098059A1 (ENDOMET BIOSCIENCES, published 2026).
“And” between values parts separate entries of the source, which are not always exact repeats. Identical values can stand only once. *1 amine or outer side, *2 acyl side, *3 side chain or, on linkers, in order; H or OH if unused. Bridges are numbered along the chain shown (N, C = ends). Primed or numbered codes have the meaning given here. [ ]: non-standard residue; d: D form. Cys(Me) = CSC[C@H](N[*:1])C(=O)[*:2]; αMeF = C[C@](N)(Cc1ccccc1)C(=O)O; Bz′ = not defined here; Ppa = not defined here; Sar = CNCC(=O)O

T1: β-catenin (UniProt P35222 134-665, limits assumed, biotinylated in the SPR and plate assays)
T1 construct: also called beta catenin; biotinylated β-catenin
T1 sequence (looked up): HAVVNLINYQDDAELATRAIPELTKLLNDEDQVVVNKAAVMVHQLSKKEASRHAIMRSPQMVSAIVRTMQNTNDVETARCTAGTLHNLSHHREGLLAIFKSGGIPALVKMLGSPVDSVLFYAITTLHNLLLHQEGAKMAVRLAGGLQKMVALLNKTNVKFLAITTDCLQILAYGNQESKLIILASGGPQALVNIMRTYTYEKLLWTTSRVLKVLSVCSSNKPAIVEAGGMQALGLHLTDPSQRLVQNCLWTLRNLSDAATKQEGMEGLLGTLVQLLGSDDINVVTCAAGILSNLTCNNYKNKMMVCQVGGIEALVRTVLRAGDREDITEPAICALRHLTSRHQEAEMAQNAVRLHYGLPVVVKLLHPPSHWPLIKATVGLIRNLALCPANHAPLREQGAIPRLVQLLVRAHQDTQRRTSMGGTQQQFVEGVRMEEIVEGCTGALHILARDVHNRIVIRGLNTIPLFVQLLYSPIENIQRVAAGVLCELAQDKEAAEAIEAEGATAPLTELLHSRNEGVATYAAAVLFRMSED


Assays:
β-catenin [1] = molecular target: T1, β-catenin; assay: competitive FP
How it was run: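 Competitive fluorescence polarization with inhibitor peptide serially diluted from 10 nM to 30 uM; polarization read at 470 nm excitation, 520 nm emission. Experiments performed three times.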

β-catenin [2] = molecular target: T1, β-catenin; assay: cell-based or functional assay

Binder	Kd (β-catenin [1])	Wnt Reporter EC50 (β-catenin [2])	Proliferation IC50, Endo cells (β-catenin [2])	Proliferation IC50, Wnt dependent cells (β-catenin [2])
KLWALIXAWD (HELM PEPTIDE1{[ac].K.[Nle].W.[Cha].L.I.[Abu].A.W.D}$PEPTIDE1,PEPTIDE1,2:R3-11:R3$$$V2.0; SMILES CCCC[C@@H]1NC(=O)[C@@H](NC(C)=O)CCCCNC(=O)C[C@@H](C(=O)O)NC(=O)[C@H](Cc2c[nH]c3ccccc23)NC(=O)[C@H](C)NC(=O)[C@H](CC)NC(=O)[C@H]([C@@H](C)CC)NC(=O)[C@H](CC(C)C)NC(=O)[C@H](CC2CCCCC2)NC(=O)[C@H](Cc2c[nH]c3ccccc23)NC1=O, also called Cyclo-acetyl-K*Nle-W-3-cyclohexyl-L-alanine-LI-(amino butyric acid-AWD*-COOH)) [Peptide 2 (SEQ ID NO: 215)]	≤ 400 nM	> 30000 nM	> 30000 nM	–
Ac-WFLIAFWG-OH [SEQ ID NO: 196]	> 400 nM and ≤ 1000 nM	≤ 7500 nM	–	–
Ac-WILISFWG-OH [SEQ ID NO: 195]	≤ 400 nM	≤ 7500 nM	–	–
Ac-WFLICFWG-OH [SEQ ID NO: 194]	> 400 nM and ≤ 1000 nM	≤ 7500 nM	–	–
XMWFLICFWD (HELM PEPTIDE1{[O=C(CCCCCN[*:1])[*:2]].M.W.F.L.I.C.F.W.D}$PEPTIDE1,PEPTIDE1,1:R1-10:R3$$$V2.0; SMILES CC[C@H](C)[C@@H]1NC(=O)[C@H](CC(C)C)NC(=O)[C@H](Cc2ccccc2)NC(=O)[C@H](Cc2c[nH]c3ccccc23)NC(=O)[C@H](CCSC)NC(=O)CCCCCNC(=O)C[C@@H](C(=O)O)NC(=O)[C@H](Cc2c[nH]c3ccccc23)NC(=O)[C@H](Cc2ccccc2)NC(=O)[C@H](CS)NC1=O) [SEQ ID NO: 189]	> 400 nM and ≤ 1000 nM	≤ 7500 nM	–	–
[Ado]MWFLICAWD-OH (lactam N-10) [SEQ ID NO: 193]	> 400 nM and ≤ 1000 nM	≤ 7500 nM	–	–
MWGLISFWG (HELM PEPTIDE1{[ac].M.W.[O=C([C@@H](N[*:1])C1CCCCC1)[*:2]].L.I.S.F.W.G}$$$$V2.0; SMILES CC[C@H](C)[C@H](NC(=O)[C@H](CC(C)C)NC(=O)[C@@H](NC(=O)[C@H](Cc1c[nH]c2ccccc12)NC(=O)[C@H](CCSC)NC(C)=O)C1CCCCC1)C(=O)N[C@@H](CO)C(=O)N[C@@H](Cc1ccccc1)C(=O)N[C@@H](Cc1c[nH]c2ccccc12)C(=O)NCC(=O)O, also called Hit 1) [SEQ ID NO: 217]	≤ 400 nM	≤ 7500 nM	–	–
H-MWFLIAAWG-OH [SEQ ID NO: 212]	> 400 nM and ≤ 1000 nM	≤ 7500 nM	–	–
{Bz′}-MWILISFWG-OH [SEQ ID NO: 223]	≤ 400 nM	≤ 7500 nM	–	–
Ppa-MWILISFWG-OH (reading uncertain; also: printed as Ppa-MWILISFWG-COOH, also called Hit 2) [SEQ ID NO: 224]	≤ 400 nM	≤ 7500 nM	–	–
H-MWFLI[Cys(Me)]FWG-OH [SEQ ID NO: 214]	> 400 nM and ≤ 1000 nM	≤ 7500 nM	–	–
MWALISFWG (HELM PEPTIDE1{[ac].M.W.[Cha].L.I.S.F.W.G}$$$$V2.0; SMILES CC[C@H](C)[C@H](NC(=O)[C@H](CC(C)C)NC(=O)[C@H](CC1CCCCC1)NC(=O)[C@H](Cc1c[nH]c2ccccc12)NC(=O)[C@H](CCSC)NC(C)=O)C(=O)N[C@@H](CO)C(=O)N[C@@H](Cc1ccccc1)C(=O)N[C@@H](Cc1c[nH]c2ccccc12)C(=O)NCC(=O)O) [SEQ ID NO: 216]	> 400 nM and ≤ 1000 nM	≤ 7500 nM	–	–
Ac-MWFLISFWG-OH [SEQ ID NO: 219]	> 400 nM and ≤ 1000 nM	≤ 7500 nM	–	–
KWALIXAWD (HELM PEPTIDE1{[ac].K.W.[Cha].L.I.[Abu].A.W.D}$PEPTIDE1,PEPTIDE1,2:R3-10:R3$$$V2.0; SMILES CC[C@@H]1NC(=O)[C@H]([C@@H](C)CC)NC(=O)[C@H](CC(C)C)NC(=O)[C@H](CC2CCCCC2)NC(=O)[C@H](Cc2c[nH]c3ccccc23)NC(=O)[C@@H](NC(C)=O)CCCCNC(=O)C[C@@H](C(=O)O)NC(=O)[C@H](Cc2c[nH]c3ccccc23)NC(=O)[C@H](C)NC1=O) [SEQ ID NO: 261]	> 400 nM and ≤ 1000 nM	> 7500 nM and ≤ 15000 nM	7700 nM	4000 nM
[Ado]MWFLICFWD-OH (lactam N-10) [SEQ ID NO: 190]	> 400 nM and ≤ 1000 nM	≤ 7500 nM	–	–

The next lines start with the values.

Kd (β-catenin [1])	Wnt Reporter EC50 (β-catenin [2])	Proliferation IC50, Endo cells (β-catenin [2])	Proliferation IC50, Wnt dependent cells (β-catenin [2])	Binder
≤ 400 nM	> 30000 nM	–	–	H-MW[αMeF]LISFWG-OH [SEQ ID NO: 133]
> 10000 nM and ≤ 30000 nM	> 7500 nM and ≤ 15000 nM	–	–	DWFLICFWKG (HELM PEPTIDE1{[ac].D.W.F.L.I.C.F.W.K.G}$PEPTIDE1,PEPTIDE1,2:R3-10:R3$$$V2.0; SMILES CC[C@H](C)[C@@H]1NC(=O)[C@H](CC(C)C)NC(=O)[C@H](Cc2ccccc2)NC(=O)[C@H](Cc2c[nH]c3ccccc23)NC(=O)[C@@H](NC(C)=O)CC(=O)NCCCC[C@@H](C(=O)NCC(=O)O)NC(=O)[C@H](Cc2c[nH]c3ccccc23)NC(=O)[C@H](Cc2ccccc2)NC(=O)[C@H](CS)NC1=O) [SEQ ID NO: 175]
> 400 nM and ≤ 1000 nM	≤ 7500 nM	–	–	Ac-WFLISFWG-OH (also called Hit 5) [SEQ ID NO: 220]
≤ 400 nM	≤ 7500 nM	–	–	XMWFLICAWD (HELM PEPTIDE1{[O=C(CCCCCN[*:1])[*:2]].M.W.F.L.I.C.A.W.D}$PEPTIDE1,PEPTIDE1,1:R1-10:R3$$$V2.0; SMILES CC[C@H](C)[C@@H]1NC(=O)[C@H](CC(C)C)NC(=O)[C@H](Cc2ccccc2)NC(=O)[C@H](Cc2c[nH]c3ccccc23)NC(=O)[C@H](CCSC)NC(=O)CCCCCNC(=O)C[C@@H](C(=O)O)NC(=O)[C@H](Cc2c[nH]c3ccccc23)NC(=O)[C@H](C)NC(=O)[C@H](CS)NC1=O) [SEQ ID NO: 192]
> 400 nM and ≤ 1000 nM	≤ 7500 nM	–	–	KWGLISAWD (HELM PEPTIDE1{K.W.[O=C([C@@H](N[*:1])C1CCCCC1)[*:2]].L.I.S.A.W.D}$PEPTIDE1,PEPTIDE1,1:R3-9:R3$$$V2.0; SMILES CC[C@H](C)[C@@H]1NC(=O)[C@H](CC(C)C)NC(=O)[C@H](C2CCCCC2)NC(=O)[C@H](Cc2c[nH]c3ccccc23)NC(=O)[C@@H](N)CCCCNC(=O)C[C@@H](C(=O)O)NC(=O)[C@H](Cc2c[nH]c3ccccc23)NC(=O)[C@H](C)NC(=O)[C@H](CO)NC1=O) [SEQ ID NO: 204]
≤ 400 nM	≤ 7500 nM	–	–	Ac-MWILISFW[Sar]-OH [SEQ ID NO: 221]
> 400 nM and ≤ 1000 nM	≤ 7500 nM	–	–	MWILISFWG (HELM PEPTIDE1{[CC(C)(C)C(=O)[*:2]].M.W.I.L.I.S.F.W.G}$$$$V2.0; SMILES CC[C@H](C)[C@H](NC(=O)[C@H](CC(C)C)NC(=O)[C@@H](NC(=O)[C@H](Cc1c[nH]c2ccccc12)NC(=O)[C@H](CCSC)NC(=O)C(C)(C)C)[C@@H](C)CC)C(=O)N[C@@H](CO)C(=O)N[C@@H](Cc1ccccc1)C(=O)N[C@@H](Cc1c[nH]c2ccccc12)C(=O)NCC(=O)O) [SEQ ID NO: 225]
≤ 400 nM	≤ 7500 nM	–	–	Ac-MWLLISFWG-OH [SEQ ID NO: 218]
> 400 nM and ≤ 1000 nM	≤ 7500 nM	–	–	H-AWFLISFWG-OH [SEQ ID NO: 209]
> 400 nM and ≤ 1000 nM	≤ 7500 nM	–	–	KWFLICAWD (cyclo-H2N-K(G*)WFLICAWD*-COOH) [SEQ ID NO: 207]
> 10000 nM and ≤ 30000 nM	> 7500 nM and ≤ 15000 nM	–	–	DWFLICFWKG (HELM PEPTIDE1{D.W.F.L.I.C.F.W.K.G}$PEPTIDE1,PEPTIDE1,1:R3-9:R3$$$V2.0; SMILES CC[C@H](C)[C@@H]1NC(=O)[C@H](CC(C)C)NC(=O)[C@H](Cc2ccccc2)NC(=O)[C@H](Cc2c[nH]c3ccccc23)NC(=O)[C@@H](N)CC(=O)NCCCC[C@@H](C(=O)NCC(=O)O)NC(=O)[C@H](Cc2c[nH]c3ccccc23)NC(=O)[C@H](Cc2ccccc2)NC(=O)[C@H](CS)NC1=O) [SEQ ID NO: 176]
